Experiments:
[1] = target: H4K16ac nucleosome (X. laevis | not stated); assay: native gel or EMSA; increasing amounts of Orc1 or Sir3 proteins with 50 or 25 nM nucleosomes; 10 mM Tris pH 7.5, 50 mM NaCl, 2.5% glycerol, 1 mM DTT; room temperature, 30 min; native PAGE 6% (Sir3) or 8% (Orc1), 0.2X TBE; decrease of free nucleosome; apparent KD from a Hill fit
[2] = target: Unmodified nucleosome core particle (X. laevis histone octamer on 147 bp Widom-601 DNA) (X. laevis); assay: as above

Sir3 BAH D205Q (from UniProt P06701 1-214) (domain or fragment)
fold difference in affinity compared with unmodified nucleosome [1]: 4 fold

Orc1 BAH E95K (from UniProt P54784 1-214) (domain or fragment)
fold loss of affinity [2]: 4 fold

Orc1 BAH A2P (from UniProt P54784 1-214) (domain or fragment)
fold loss of affinity compared with the WT domain [2]: 2 fold

Orc1 BAH R202E (from UniProt P54784 1-214) (domain or fragment)
fold decrease in affinity compared with the WT domain [2]: 4.9 fold
